Experimental data: patent US20240287138A1 (Merck Sharp & Dohme, published 2024)
Numbered stars: 1 amine (or outer) side, 2 acyl side, 3 side chain; on linkers, the order of the positions; unused ones are H or OH. Bridge positions count the residues as written; N and C are the ends. Square brackets hold non-standard residues; d marks the D form. bhcLeu = (1R,3S)-3-aminocyclopentane-1-carboxylic acid, O=C([C@@H]1CC[C@H](N[*:1])C1)[*:2]; Trp(βS-Me,7-OMe) = COc1cccc2c([C@H](C)[C@H](N)C(=O)O)c[nH]c12; Trp(βS-Me) = C[C@@H](c1c[nH]c2ccccc12)[C@H](N)C(=O)O; Phe(2-F,4-COOH) = N[C@@H](Cc1ccc(C(=O)O)cc1F)C(=O)O; Trp(7-Cl) = N[C@@H](Cc1c[nH]c2c(Cl)cccc12)C(=O)O; Phe(3-COOH) = N[C@@H](Cc1cccc(C(=O)O)c1)C(=O)O; Phe(4-CONH2) = NC(=O)c1ccc(C[C@H](N)C(=O)O)cc1; Phe(4-COOH) = N[C@@H](Cc1ccc(C(=O)O)cc1)C(=O)O; Trp(7-aza) = N[C@@H](Cc1c[nH]c2ncccc12)C(=O)O; Phe(4-CH2NH2) = NCc1ccc(C[C@H](N)C(=O)O)cc1; dPro(trans-4-F) = O=C(O)[C@H]1C[C@H](F)CN1; 3Pal(6-OMe) = COc1ccc(C[C@H](N)C(=O)O)cn1; αMeW = C[C@](N)(Cc1c[nH]c2ccccc12)C(=O)O; Pip(4-aza) = O=C(O)[C@@H]1CNCCN1; 4Pal = N[C@@H](Cc1ccncc1)C(=O)O; NMeE = CN[C@@H](CCC(=O)O)C(=O)O; 2SBrBu = not defined here; 2SBrPr = not defined here; NMeS = CN[C@@H](CO)C(=O)O; αMeS = C[C@](N)(CO)C(=O)O; Nle = CCCC[C@H](N)C(=O)O; Pip2c = not defined here; SBrPh = not defined here; Dab = NCC[C@H](N)C(=O)O; Spip = not defined here; Dap = NC[C@H](N)C(=O)O; Sar = CNCC(=O)O

T1: TNFR1 on THP-1 Lucia NF-kB reporter cells (UniProt P19438 30-455, limits assumed)
T1 sequence (looked up): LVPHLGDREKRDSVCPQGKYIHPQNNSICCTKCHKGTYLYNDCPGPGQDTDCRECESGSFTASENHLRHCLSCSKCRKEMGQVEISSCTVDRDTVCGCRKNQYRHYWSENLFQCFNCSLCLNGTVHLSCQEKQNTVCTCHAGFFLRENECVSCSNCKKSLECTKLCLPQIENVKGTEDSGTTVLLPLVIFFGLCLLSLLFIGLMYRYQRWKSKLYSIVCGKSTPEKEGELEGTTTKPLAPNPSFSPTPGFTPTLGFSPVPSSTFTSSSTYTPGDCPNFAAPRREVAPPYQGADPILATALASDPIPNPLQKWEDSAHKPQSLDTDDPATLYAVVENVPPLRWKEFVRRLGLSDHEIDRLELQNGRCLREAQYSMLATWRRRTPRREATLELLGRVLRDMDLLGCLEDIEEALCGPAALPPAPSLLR

T2: TNFR1 on THP-1 Lucia NF-κB cells (UniProt P19438 30-455, limits assumed)
T2 sequence (looked up): T1 sequence (looked up)

B1: SEQ ID NO. 125 (peptide)
peptide: {CH2CO}-[Nle][4Pal][Prot4NH2][Trp(7-aza)][NMeE]N[4Pal][Trp(7-Cl)][αMeS][Phe(4-COOH)]Y[Sar][Trp(βS-Me,7-OMe)]C-NH2
modifications: thioether N-14
B2: SEQ ID NO. 111 (peptide)
peptide: cyclo([bhcLeu][Nle][4Pal][Pip2c]W[NMeE]N[4Pal][Trp(7-Cl)][αMeS][F4MCO2H]Y[Sar][Trp(βS-Me,7-OMe)])
modifications: reading uncertain; also: printed as cyclo(bhcLeu-Nle-4Pal-Pip2c-W-NMeE-N-4Pal-Trp7Cl-aMeS-F4MCO2H-Y-Sar-SbMeW7OMe)
B3: SEQ ID NO. 107 (peptide)
peptide: cyclo([bhcLeu][Nle][4Pal][Pip2c]W[NMeE]N[4Pal][Trp(7-Cl)][αMeS][Phe(4-COOH)][Phe(2-F,4-COOH)][Sar][Trp(βS-Me,7-OMe)])
modifications: reading uncertain; also: printed as cyclo(bhcLeu-Nle-4Pal-Pip2c-W-NMeE-N-4Pal-Trp7Cl-aMeS-Phe4COOH-Phe2F4COOH-Sar-SbMeW7OMe)
B4: SEQ ID NO. 120 (peptide)
peptide: cyclo([bhcLeu][Nle][4Pal][Pipc5CO2H]W[NMeE]N[4Pal][Trp(7-Cl)][αMeS][Phe(4-COOH)]Y[Sar][Trp(βS-Me,7-OMe)])
B5: SEQ ID NO. 117 (peptide)
peptide: cyclo([bhcLeu][Nle][4Pal][Pip2c]W[NMeE]N[Phe4COOMe][Trp(7-Cl)][αMeS][Phe(4-COOH)]Y[Sar][Trp(βS-Me,7-OMe)])
modifications: reading uncertain; also: printed as cyclo(bhcLeu-Nle-4Pal-Pip2c-W-NMeE-N-Phe4COOMe-Trp7Cl-aMeS-Phe4COOH-Y-Sar-SbMeW7OMe)
B6: SEQ ID NO. 108 (peptide)
peptide: cyclo([bhcLeu][Nle][4Pal][Pip2c]W[NMeE]N[Phe(2-F,4-COOH)][Trp(7-Cl)][αMeS][Phe(4-COOH)]Y[Sar][Trp(βS-Me,7-OMe)])
modifications: reading uncertain; also: printed as cyclo(bhcLeu-Nle-4Pal-Pip2c-W-NMeE-N-Phe2F4COOH-Trp7Cl-aMeS-Phe4COOH-Y-Sar-SbMeW7OMe)
B7: SEQ ID NO. 250 (peptide)
peptide: 2SBrPr-[Nle][Phe(4-CH2NH2)]S[Trp(7-aza)][NMeE]N[4Pal][Trp(7-Cl)][αMeS][Phe(4-CONH2)]Y[Sar][Trp(βS-Me,7-OMe)]C-NH2
modifications: thioether N-14; reading uncertain; also: printed as cyclo(2SBrPr-Nle-Phe4CH2NH2-S-Trp7az-NMeE-N-4Pal-Trp7Cl-aMeS-Phe4CONH2-Y-Sar-SbMeW7OMe-C)-NH2
B8: SEQ ID NO. 274 (peptide)
peptide: SBrPh-[Nle][4Pal]S[Trp(7-aza)][NMeE]N[4Pal][Trp(7-Cl)][αMeS][Phe(4-COOH)]Y[Sar][αMeW]C-NH2
modifications: thioether N-14; reading uncertain; also: printed as cyclo(SBrPh-Nle-4Pal-S-Trp7az-NMeE-N-4Pal-Trp7Cl-aMeS-Phe4COOH-Y-Sar-aMeW-C)-NH2
B9: SEQ ID NO. 270 (peptide)
peptide: {CH2CO}-[Nle][4Pal][NMeS]W[NMeE]N[4Pal][Trp(7-Cl)][αMeS][Phe(4-COOH)][Phe3CONH2][Sar][Trp(βS-Me,7-OMe)]C-NH2
modifications: thioether N-14
B10: SEQ ID NO. 241 (peptide)
peptide: cyclo([bhcLeu][Nle][3Pal(6-OMe)][Pip(4-aza)]W[NMeE]N[4Pal][Trp(7-Cl)][αMeS][Phe(4-COOH)]Y[Sar][Trp(βS-Me,7-OMe)])
SMILES: CCCC[C@@H]1NC(=O)[C@@H]2CC[C@@H](C2)NC(=O)[C@H]([C@@H](C)c2c[nH]c3c(OC)cccc23)NC(=O)CN(C)C(=O)[C@H](Cc2ccc(O)cc2)NC(=O)[C@H](Cc2ccc(C(=O)O)cc2)NC(=O)[C@](C)(CO)NC(=O)[C@H](Cc2c[nH]c3c(Cl)cccc23)NC(=O)[C@H](Cc2ccncc2)NC(=O)[C@H](CC(N)=O)NC(=O)[C@H](CCC(=O)O)N(C)C(=O)[C@H](Cc2c[nH]c3ccccc23)NC(=O)[C@@H]2CNCCN2C(=O)[C@H](Cc2ccc(OC)nc2)NC1=O
B11: SEQ ID NO. 255 (peptide)
peptide: {CH2CO}-[Nle][4Pal][Pip(4-aza)][Trp(7-aza)][NMeE]N[4Pal][Trp(7-Cl)][αMeS][Phe(4-COOH)]Y[Sar][Trp(βS-Me,7-OMe)]CGEE-NH2
modifications: thioether N-14
SMILES: CCCC[C@@H]1NC(=O)CSC[C@@H](C(=O)NCC(=O)N[C@@H](CCC(=O)O)C(=O)N[C@@H](CCC(=O)O)C(N)=O)NC(=O)[C@H]([C@@H](C)c2c[nH]c3c(OC)cccc23)NC(=O)CN(C)C(=O)[C@H](Cc2ccc(O)cc2)NC(=O)[C@H](Cc2ccc(C(=O)O)cc2)NC(=O)[C@](C)(CO)NC(=O)[C@H](Cc2c[nH]c3c(Cl)cccc23)NC(=O)[C@H](Cc2ccncc2)NC(=O)[C@H](CC(N)=O)NC(=O)[C@H](CCC(=O)O)N(C)C(=O)[C@H](Cc2c[nH]c3ncccc23)NC(=O)[C@@H]2CNCCN2C(=O)[C@H](Cc2ccncc2)NC1=O
B12: SEQ ID NO. 279 (peptide)
peptide: {CH2CO}-[Nle][4Pal][Pip(4-aza)]W[dPro(trans-4-F)]N[4Pal][Trp(7-Cl)][αMeS][Phe(4-COOH)]Y[Sar][Trp(βS-Me,7-OMe)]C-NH2
modifications: thioether N-14
SMILES: CCCC[C@@H]1NC(=O)CSC[C@@H](C(N)=O)NC(=O)[C@H]([C@@H](C)c2c[nH]c3c(OC)cccc23)NC(=O)CN(C)C(=O)[C@H](Cc2ccc(O)cc2)NC(=O)[C@H](Cc2ccc(C(=O)O)cc2)NC(=O)[C@](C)(CO)NC(=O)[C@H](Cc2c[nH]c3c(Cl)cccc23)NC(=O)[C@H](Cc2ccncc2)NC(=O)[C@H](CC(N)=O)NC(=O)[C@H]2C[C@H](F)CN2C(=O)[C@H](Cc2c[nH]c3ccccc23)NC(=O)[C@@H]2CNCCN2C(=O)[C@H](Cc2ccncc2)NC1=O
B13: SEQ ID NO. 245 (peptide)
peptide: {CH2CO}-[LysN3][4Pal][Dap][Trp(βS-Me)][dP]N[4Pal][Trp(7-Cl)][αMeS][Phe(4-COOH)][Phe(4-CH2NH2)][Sar][αMeW]C-NH2
modifications: thioether N-14
B14: SEQ ID NO. 273 (peptide)
peptide: XXXXENXXXXYGXC
modifications: not fully specified; cyclo(2SBrPr-Nle-4Pal-Bav-Trp7az-NMeE-N-4Pal-Trp7Cl-aMeS-Phe4CONH2-Y-Sar-SbMeW7OMe-C)-NH2
B15: SEQ ID NO. 249 (peptide)
peptide: {CH2CO}-[Nle][4Pal][Pip(4-aza)]W[NMeE]N[4Pal][Trp(7-Cl)][αMeS][Phe(3-COOH)]Y[Sar][Trp(βS-Me,7-OMe)]C-NH2
modifications: thioether N-14
SMILES: CCCC[C@@H]1NC(=O)CSC[C@@H](C(N)=O)NC(=O)[C@H]([C@@H](C)c2c[nH]c3c(OC)cccc23)NC(=O)CN(C)C(=O)[C@H](Cc2ccc(O)cc2)NC(=O)[C@H](Cc2cccc(C(=O)O)c2)NC(=O)[C@](C)(CO)NC(=O)[C@H](Cc2c[nH]c3c(Cl)cccc23)NC(=O)[C@H](Cc2ccncc2)NC(=O)[C@H](CC(N)=O)NC(=O)[C@H](CCC(=O)O)N(C)C(=O)[C@H](Cc2c[nH]c3ccccc23)NC(=O)[C@@H]2CNCCN2C(=O)[C@H](Cc2ccncc2)NC1=O
B16: SEQ ID NO. 264 (peptide)
peptide: {CH2CO}-[Nle]H[Pip2c][Trp(7-aza)][NMeE]N[4Pal][Trp(7-Cl)][αMeS][Phe(4-COOH)]Y[Sar][Trp(βS-Me,7-OMe)]C-NH2
modifications: thioether N-14; reading uncertain; also: printed as cyclo(ClAc-Nle-H-Pip2c-Trp7az-NMeE-N-4Pal-Trp7Cl-aMeS-Phe4COOH-Y-Sar-SbMeW7OMe-C)-NH2
B17: SEQ ID NO. 246 (peptide)
peptide: 2SBrBu-[Nle][4Pal][Spip]W[NMeE]N[4Pal][Trp(7-Cl)][αMeS][Phe(4-CONH2)]Y[Sar][Trp(βS-Me,7-OMe)]C-NH2
modifications: thioether N-14; reading uncertain; also: printed as cyclo(2SBrBu-Nle-4Pal-Spip-W-NMeE-N-4Pal-Trp7Cl-aMeS-Phe4CONH2-Y-Sar-SbMeW7OMe-C)-NH2
B18: SEQ ID NO. 277 (peptide)
peptide: {CH2CO}-[Nle][4Pal][Dab][Trp(7-aza)][NMeE]N[4Pal][Trp(7-Cl)][αMeS][Phe(4-COOH)]Y[Sar][αMeW]C-NH2
modifications: thioether N-14
SMILES: CCCC[C@@H]1NC(=O)CSC[C@@H](C(N)=O)NC(=O)[C@](C)(Cc2c[nH]c3ccccc23)NC(=O)CN(C)C(=O)[C@H](Cc2ccc(O)cc2)NC(=O)[C@H](Cc2ccc(C(=O)O)cc2)NC(=O)[C@](C)(CO)NC(=O)[C@H](Cc2c[nH]c3c(Cl)cccc23)NC(=O)[C@H](Cc2ccncc2)NC(=O)[C@H](CC(N)=O)NC(=O)[C@H](CCC(=O)O)N(C)C(=O)[C@H](Cc2c[nH]c3ncccc23)NC(=O)[C@H](CCN)NC(=O)[C@H](Cc2ccncc2)NC1=O

What follows are binders tested against T1, TNFR1 on THP-1 Lucia NF-kB reporter … (assay: cell-based or functional assay).

| Binder | THP-1 IC50 [nM] |
| --- | --- |
| B1 | 4.1 |
| B2 | 1.6 |
| B3 | 1 |
| B4 | 1.4 |
| B5 | 2.1 |
| B6 | 1.2 |

These binders were tested against T2, TNFR1 on THP-1 Lucia NF-κB cells (assay: cell-based or functional assay).

| Binder | THP-1 IC50 [nM] |
| --- | --- |
| B7 | 2.4 |
| B8 | 3.2 |
| B9 | 2.2 |
| B10 | 1.4 |
| B11 | 6.5 |
| B12 | 1.4 |
| B13 | 9.4 |
| B14 | 4.1 |
| B15 | 4.4 |
| B16 | 8.1 |
| B17 | 4.3 |
| B18 | 3 |
